Measured values as given in patent publication US20080081903A1, “METHOD FOR SCREENING TRANSCRIPTIONAL COREGULATORY PROTEINS OF TRANSCRIPTION FACTORS, AND ANDROGEN RECEPTOR TRANSCRIPTIONAL COREGULATORY PROTEINS AS TARGETS FOR ANDROGEN RECEPTOR-DEPENDENT DISEASES” (NEW YORK UNIVERSITY, priority 2001, published 2008).

Target: T1, androgen receptor transcriptional activation (Homo sapiens, UniProt P10275)
T1 construct: The pcDNA3:hAR expression plasmid was used to produce full length human AR; expressed in transfected cells; host or cells: HeLa and PC-3 (both AR deficient)
T1 sequence (P10275 1-920): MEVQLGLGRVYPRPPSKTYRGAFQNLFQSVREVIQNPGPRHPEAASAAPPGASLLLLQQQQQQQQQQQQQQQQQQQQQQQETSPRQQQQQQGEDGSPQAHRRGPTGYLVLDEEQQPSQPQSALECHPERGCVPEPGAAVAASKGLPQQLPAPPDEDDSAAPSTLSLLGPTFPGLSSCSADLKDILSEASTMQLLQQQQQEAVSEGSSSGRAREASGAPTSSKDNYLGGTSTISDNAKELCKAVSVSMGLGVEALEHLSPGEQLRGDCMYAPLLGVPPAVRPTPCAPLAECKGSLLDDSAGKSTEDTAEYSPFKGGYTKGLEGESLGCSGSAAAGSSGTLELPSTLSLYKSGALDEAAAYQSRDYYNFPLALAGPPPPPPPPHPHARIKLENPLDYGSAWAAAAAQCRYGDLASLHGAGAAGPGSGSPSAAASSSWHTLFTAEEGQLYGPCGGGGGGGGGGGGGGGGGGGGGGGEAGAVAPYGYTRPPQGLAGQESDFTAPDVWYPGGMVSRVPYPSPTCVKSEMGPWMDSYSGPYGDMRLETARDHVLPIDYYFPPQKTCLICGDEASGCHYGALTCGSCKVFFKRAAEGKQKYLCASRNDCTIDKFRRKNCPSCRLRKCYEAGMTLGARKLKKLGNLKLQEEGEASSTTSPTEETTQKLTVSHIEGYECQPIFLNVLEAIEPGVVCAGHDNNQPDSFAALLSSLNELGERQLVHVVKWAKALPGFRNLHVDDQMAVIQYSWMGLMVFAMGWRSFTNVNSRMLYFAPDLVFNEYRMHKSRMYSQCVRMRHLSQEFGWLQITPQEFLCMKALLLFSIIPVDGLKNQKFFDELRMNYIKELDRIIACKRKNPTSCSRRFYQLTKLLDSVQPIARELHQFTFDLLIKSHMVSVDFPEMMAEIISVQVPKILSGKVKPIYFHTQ
Assay: Transient transfection, AR-responsive luciferase reporter assay
Type: cell-based
Settings: overexpressed in cultured mammalian cells
Description: The two ART-27 derivatives used in the mammalian cell culture experiments were constructed as follows: using EcoRI-XhoI, ART-27 was subcloned from pEG202:ART-27 into a pcDNA3 vector that has an N-terminal HA epitope (pCDNA3-HA) in the same reading frame as the LexA moiety in pEG202 with respect to the EcoRI site; ART-271-127 was subcloned from pEG202:ART-271-127 into pcDNA3-HA, pJG4-5:Sp183-262, pJG4-5:Sp1263-542, pJG4-5:TAF130270-700, and pJG4-5:CREB3-296 were provided by N. Tanese (New York University School of Medicine, New York). pJG4-5:SRC-1374-800 was provided by H. Samuels (New York University School of Medicine, New York). pJG4-5:GR107-237 was previously described (Hittelman et al., 1999). The pJK103 reporter plasmid, which contains a single LexA operator linked to β-galactosidase, was used in all activity assays of the LexA fusion proteins and in the modified two-hybrid assay. The pΔ4X-LALO-luciferase reporter plasmid, which contains four LexA operators upstream of a minimal Drosophila alcohol dehydrogenase promoter linked to luciferase, was used in mammalian activity assays to monitor the intrinsic transcriptional activity of the LexA fusion proteins. […]

B1: ART-5: Androgen Receptor Trapped protein, SEQ ID NO:4, unknown function, represented in EST database (protein)
chain: MHNPDGSASPTADPGSELQTLGQAARRPPPPRAGHDAPRRTRPSARKPLSCFSRRPMPTREPPKTRGSRGHLHTHPPGPGPPLQGLAPRGLKTSAPRPPCQPQPGPHKAKTKKIVFEDELLSQALLGAKKPIGAIPKGHKPRPHPVPDYELKYPPVSSERERSRYVAVFQDQYGEFLELQHEVGCAQAKLRQLEALLSSLPPPQSQKEAQVAARVWREFEMKRMDPGFLDKQARCHYLKGKLRHLKTQIQKFDDQGDSEGSVYF
modifications: Human
With B1 the androgen receptor-dependent transactivation was “increase”.
